{"source": "paper PMC10039900", "about": "“Characterization of human oxidoreductases involved in aldehyde odorant metabolism” (Scientific Reports, 2023)", "proteins": {"B1": {"name": "aldehyde dehydrogenase family 3 member A1 (ALDH3A1) (enzyme, human)", "chain": "SKISEAVKRARAAFSSGRTRPLQFRIQQLEALQRLIQEQEQELVGALAADLHKNEWNAYYEEVVYVLEEIEYMIQKLPEWAADEPVEKTPQTQQDELYIHSEPLGVVLVIGTWNYPFNLTIQPMVGAIAAGNSVVLKPSELSENMASLLATIIPQYLDKDLYPVINGGVPETTELLKERFDHILYTGSTGVGKIIMTAAAKHLTPVTLELGGKSPCYVDKNCDLDVACRRIAWGKFMNSGQTCVAPDYILCDPSIQNQIVEKLKKSLKEFYGEDAKKSRDYGRIISARHFQRVMGLIEGQKVAYGGTGDAATRYIAPTILTDVDPQSPVMQEEIFGPVLPIVCVRSLEEAIQFINQREKPLALYMFSSNDKVIKKMIAETSSGGVAANDVIVHITLHSLPFGGVGNSGMGSYHGKKSFETFSHRRSCLVRPLMNDEGLKVRYPPSPAKMTQH", "notes": "human ALDH3A1, UniProt P30838; Subcloned between NdeI and SacI; The crystal was soaked with 10 mM octanal (a small molecule, not a partner); also called aldehyde dehydrogenase 3A1; Aldehyde dehydrogenase, dimeric NADP-preferring; source: E. coli BL21(DE3), purified (two ammonium sulfate precipitations, two chromatography steps)"}}, "biological_target": "the molecule itself", "assay": "crystal structure; sitting drop vapor diffusion at 20 °C, ALDH3A1 2 mg/ml, 18% PEG 3350 in 0.1 M potassium acetate pH 7.5; crystals soaked in mother liquor plus 10 mM octanal; 1.80 Å", "data": [{"protein": "B1", "values": [{"measurement": "binding result", "value": "binds"}]}]}
